From US6429297B1, “Modified avidin and streptavidin and methods of use thereof” (University of Rochester, priority 1995, dated 2002)
Where two headings read alike, the source gives them in different places.

How the values were obtained:
[1] = rabbit, in vivo
Experimental: (§1) SA and Avid, 0.5 mg, were radiolabeled with starting activities of ˜0.3 mCi ^131I and ˜0.1 mCi ^131I, respectively.
(§2) Biodistribution was determined in vivo. New Zealand White rabbits, ˜3 kg, (n=3 per experiment) were fasted for 12 hours prior to the experiment and anesthetized using an intramuscular injection of chlorpromazine (25 mg/kg) followed by intravenous sodium pentobarbital (15 mg/kg). An external jugular vein was dissected and catheterized using a 5 French straight catheter for injection and collection of whole blood. The animal was placed in a supine position under the gamma camera for imaging and was then injected with [75 μg] of the radiolabeled proteins prepared above. Whole blood samples (2-3 ml) were taken at intervals for 2 hours. Planar gamma camera images (30K count acquisition) were taken at 5, 30, 60 and 120 minutes. At two hours, animals were euthanized. Major organs were removed, weighed and representative samples taken for biodistribution analysis. Blood volume was estimated to be 6% of total body weight.

[2] = DACB (biotin chelate) saturation / biotin binding assay
Experimental: The ability of the compounds of the present invention to bind to biotin can be assessed by in vitro assays known to one of ordinary skill in the art. For example, the compounds of the present invention are incubated with a molar excess of radiolabeled biotin under conditions sufficient for avidin-biotin or streptavidin-biotin binding. Biotin bound to the tested compound is separated from unbound biotin, for example by filtration. The bound biotin/modified Avid or SA ratio is determined by dividing the activity in the retentate by the specific activity of the radiolabeled biotin. The binding ratios for each modified Avid or SA compound are determined by dividing the bound moles of biotin by the moles of each compound.
In a preferred embodiment, the radiolabeled biotin is the biotin chelate deferoxamineacetylcysteinylbiotin (DACB) labeled with ^67Ga. DACB is known in the art and described for example by Rosebrough et al (1993) J. Pharm. Exp. Therap. 265:408 and in U.S. Pat. No. 5,326,778. DACB can be radiolabeled by direct addition of carrier free ^67Ga citrate (DuPont Merck Pharmaceutical Co., Billerica, Mass.). Samples of Avid, SA, modified Avid, and modified SA are incubated with a 20/1 molar excess of ^67Ga-DACB on CENTRICON-30 filters (Amicon, Beverly, Mass.) in 0.05M Tris/0.15M NaCl, pH 7.5. After two washings, the bound DACB/protein ratio is determined by dividing the bound activity in the retentate by the specific activity of ^67Ga-DACB. The binding ratio for each compound is determined by dividing the bound moles of DACB by the moles of streptavidin. […]
The purified DACB was then used to access the ability of the compounds prepared in accordance with Examples I-III to bind to biotin. […] After 2 washings, the bound DACB/protein ratio was determined by dividing the bound activity in the retentate by the specific activity of ^67Ga DACB (˜2×10^16 cpm/mole). The binding ratios for each sample were determined by dividing the bound moles of DACB by the moles of each protein. […]

[3] = rabbit, in vivo; remark: listed apart in the source
Experimental: (§3) The blood clearance kinetics of the compounds of the present invention can be assessed by in vivo assays. The modified Avid and SA compounds are detectably labeled, for example by radiolabeling, injected into animals, and blood clearance is then determined by biodistribution analysis of radiolabeled samples. For example, the compounds of the present invention can be radiolabeled with ^131I by the Pierce lodobead method (Pierce, Rodeford, Ill.) and separated from free iodine for example by ultrafiltration using CENTRICON-30 filters. Experimental animals, for example, rabbits weighing about 3 kilograms, are fasted, anesthetized, and an external jugular vein is dissected and catheterized for injection and collection of blood samples. A radiolabeled compound of the present invention is injected. Whole blood samples are taken at various time intervals for about two hours. By comparing the blood clearance of galactose-modified SA with native SA, and Avid-E, the skilled artisan can determine the extent of modification that results in optimal blood clearance.
as §1, §2

[4] = design: species or system rabbits; details: rabbit, in vivo, 0.12 mg
Experimental: 0.3 mg of SA-Tgal or SA-pTgal were-added to a microcentrifuge tube containing ˜0.5 mCi of I-131. Three Iodobeads were added and then mixed and incubated for 12 minutes at room temperature. Free I-131 was removed by ultrafiltration using centricon-30 filters. SA-Tgal and SA-pTgal concentration was determined spectrophotometrically. (E^1%280 nm=34)
0.12 mg of I-131 SA-Tgal and I-131 SA-pTgal were injected into rabbits for two hours. […] The liver accumulation for SA-Tgal was 90% compared to 16% for SA-pTgal.

[5] = blood clearance of ^131I-labelled modified SA and Avid in rabbits; details: rabbit, ^131I label, over 2 hours
Experimental: as §3, §1, §2

[6] = biodistribution and gamma camera imaging of ^131I-labelled modified SA and Avid in rabbits; details: rabbit; for kidney accumulation (biodistribution) / liver accumulation (biodistribution): 2 hours after injection; for planar gamma camera images, location of activity: images at 5, 30 and 120 minutes
Experimental: as §1, §2

| Substance | planar gamma camera images, location of activity [1] | DACB binding ratio (bound moles DACB per mole protein) ([2]; 20/1 molar excess ^67Ga DACB, pH 7.5) | percent of injected dose circulating in the blood at 2 hours [3] | blood clearance (in words) [4] | blood clearance (in words) [5] | kidney accumulation (biodistribution) [6] | liver accumulation (biodistribution) [6] | planar gamma camera images, location of activity [6] | DACB saturation analysis ([2]; sample made at NHS-Ac/Avid molar ratio 10) | DACB saturation analysis ([2]; sample made at NHS-Ac/Avid molar ratio 25) |
| --- | --- | --- | --- | --- | --- | --- | --- | --- | --- | --- |
| streptavidin [SA] | vascular activity as indicated by systemic circulation and cardiac activity | 3.6 | greater than 50% | – | – | – | – | – | – | – |
| SA-pTgal: acetylated Tgal modified streptavidin | – | – | – | much slower than that of the SA-Tgal | – | – | – | – | – | – |
| avidin [reference compound] | – | – | – | – | cleared quickly | accumulated mostly in the liver and kidney | accumulated mostly in the liver and kidney | exclusively in the liver and kidneys | – | – |
| Avid-E/N: avidin both neutralized and deglycosylated | – | – | – | – | substantially prolonged | low levels in both the kidney and liver | low levels in both the kidney and liver | circulatory activity with a corresponding decrease in liver and kidney activity | – | – |
| Avid-N: avidin neutralized by acetylation of its lysine amino acids | – | – | – | – | cleared slower than native Avid | decreased considerably | high liver accumulation | dramatic reduction in kidney activity and a corresponding increase in liver activity | approximated the binding of DACB to native avidin | approximated the binding of DACB to native avidin |
